From patent US20090318342A1, “Compounds” (IMPERIAL INNOVATIONS LIMITED, priority 2005, published 2009)
Where two headings read alike, the source gives them in different places.

T1: ADAMTS-5 (Homo sapiens, UniProt Q9UNA0)
T1 sequence (Q9UNA0 262-930): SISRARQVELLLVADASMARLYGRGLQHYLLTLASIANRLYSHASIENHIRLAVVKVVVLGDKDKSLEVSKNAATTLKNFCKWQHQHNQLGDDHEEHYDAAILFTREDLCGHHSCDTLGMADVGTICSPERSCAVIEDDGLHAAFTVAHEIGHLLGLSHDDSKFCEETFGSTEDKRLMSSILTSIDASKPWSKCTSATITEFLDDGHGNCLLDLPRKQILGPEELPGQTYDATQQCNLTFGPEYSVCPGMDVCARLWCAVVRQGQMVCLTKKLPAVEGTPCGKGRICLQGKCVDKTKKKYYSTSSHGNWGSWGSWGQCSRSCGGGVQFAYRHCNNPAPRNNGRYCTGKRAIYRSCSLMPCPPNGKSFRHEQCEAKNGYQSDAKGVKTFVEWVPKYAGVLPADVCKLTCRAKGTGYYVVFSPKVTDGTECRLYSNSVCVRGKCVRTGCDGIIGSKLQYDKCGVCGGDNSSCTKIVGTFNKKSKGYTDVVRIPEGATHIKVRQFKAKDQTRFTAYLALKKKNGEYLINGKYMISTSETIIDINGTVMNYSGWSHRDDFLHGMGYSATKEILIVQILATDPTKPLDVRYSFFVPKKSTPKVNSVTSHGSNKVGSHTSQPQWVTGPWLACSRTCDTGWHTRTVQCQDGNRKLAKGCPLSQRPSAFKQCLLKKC


How the values were obtained:
[1] = target: T1, ADAMTS-5; assay: Aggrecanase assay with GST-IGD-FLAG substrate, ADAMTS-5; type: biochemical; details: for Ki: Table 3, GST-IGD-FLAG substrate, pH 7.5, 37° C., read-out: Ki(app) ADAMTS-5
Experimental: FIG. 8. Graphs of Ki(app) determination. The GST-IGD-FLAG substrate assay was used to determine the Ki(app) of the N-terminal reactive site mutants against ADAMTS-4 (filled squares) and ADAMTS-5 (open circles).
The substrate containing glutathione S-transferase (GST) fused with the interglobular domain (IGD) of aggrecan (Tyr^331 to Gly^457) attached with a C-terminal FLAG sequence (GST-IGD-FLAG) was prepared by cloning it into pGEX-4T1 at the EcoR1 and Xho1 cloning sites. This substrate was expressed in E. coli strain BL-21 (non-DE3) transfected with the pGEX4T1 GST-IGD-FLAG plasmid by induction with […] isopropyl-beta-D-thiogalactopyranoside (IPTG). After induction, bacteria were collected by centrifugation and resuspended in 20 ml of 50 mM Tris-HCl (pH 8.0), 150 mM NaCl, 0.02% NaN3, […] DTT, […] EDTA with proteinase inhibitor cocktail set II inhibitors (Merck, Nottingham, UK). The resuspended bacteria were then disrupted mechanically using a French Press (5×1500 Psi). After centrifugation at 24,000 g (30 min, 4° C.), the supernatant, containing the expressed GST-IGD-FLAG, was applied to a glutathione-Sepharose 4B column (Qiagen, Crawley, UK). The column was washed with 0.5 M NaCl, 50 mM Tris-HCl (pH 8.0) and eluted with 10 mM reduced glutathione, 50 mM Tris-HCl (pH 8.0). The eluted material was dialysed three times against 10 volumes of 50 mM Tris-HCl (pH 8.0), 150 mM NaCl. […] The concentration of intact substrate (52 kDa) was determined by comparison with Coomassie Brilliant Blue staining of known amounts of bovine serum albumin (GE Healthsciences, Buckinghampshire, UK). […]
Aggrecanase assays were carried out in 50 mM Tris HCl pH 7.5, 150 mM NaCl, 10 mM CaCl2, 0.02% NaN3, 0.05% Brij-35 at 37° C. […] The stained gels were then scanned using a scanning densitometer (Biorad GS-710, Hemel Hempstead, UK) and the band intensity of the product (17 kDa) quantified using the 1D Phoretix quantification software (Nonlinear Dynamics, Newcastle upon Tyne, UK). Background subtraction was done using the rolling ball method, and band intensity expressed as pixel volumes.

[2] = target: T2, catalytic domain of stromelysin 1 (MMP-3(ΔC)) (Homo sapiens, UniProt P08254); assay: Enzyme inhibition kinetic study, MMP-3; type: biochemical
T2 construct: the catalytic domains of stromelysin 1 (MMP-3(ΔC)) and membrane-type 1 MMP (MMP-14)
T2 sequence (P08254 100-272 limits assumed, stated change not applied): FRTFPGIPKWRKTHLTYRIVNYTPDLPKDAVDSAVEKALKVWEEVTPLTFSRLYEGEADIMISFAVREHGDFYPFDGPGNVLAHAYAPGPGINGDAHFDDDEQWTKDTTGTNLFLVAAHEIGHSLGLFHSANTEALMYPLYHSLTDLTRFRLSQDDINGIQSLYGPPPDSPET
Experimental: Enzyme inhibition kinetic studies—Inhibition kinetic studies for MMPs and TACE were carried out as described previously (19, 27) with modifications. Purified N-TIMP-3 and mutants were dialyzed against 20 mM Tris-HCl (pH 7.0), 50 mM NaCl containing 20% glycerol, centrifuged at 14,000 rpm for 10 min to remove any precipitate, and protein concentration was re-measured before conducting inhibition assays. Since NaCl inhibits the activity of the TACE ectodomain in vitro (28), we adjusted the final concentration of NaCl to 1 mM in all assays with TACE. Equal volumes (10% of total assay volume) of diluted solutions of N-TIMP-3 and mutants were added to TACE assays, resulting in a final pH of 8.8.
(Eq. 1) Tight binding inhibition:
where v is the experimentally determined reaction velocity, v0 is the uninhibited activity, E is enzyme concentration, I is inhibitor concentration, K is the apparent inhibition constant (Ki^(app)) and h is the Hill coefficient.
Inhibitory properties of mutants with purified metalloproteinases—The inhibitory activities of wild-type N-TIMP-3 and the two mutants were determined with MMPs representing four different sub-groups: full-length collagenase 1 (MMP-1), gelatinase A (MMP-2), and the catalytic domains of stromelysin 1 (MMP-3(ΔC)) and membrane-type 1 MMP (MMP-14). As previously reported for the corresponding mutants of N-TIMP-1 and TIMP-2 (17, 18), both mutations in N-TIMP-3 reduced the inhibitory activity towards the four MMPs by 2 to 3 orders of magnitude (Table I). FIG. 2A highlights the difference in inhibition of MMP-14(CD) by wild-type and mutated N-TIMP-3.
Ki(app) determinations for MMP-1, MMP-2 and MMP-3 were performed as set out in Example 1.

[3] = Table 3, read-out: Ki(app) MMP-3

| Molecule | Potency for ADAMTS-5 relative to ADAMTS-4 ([1]; ADAMTS-5 versus ADAMTS-4) | Inhibition of MMP-3 ([2]; 100 nM) | Ki [1] [nM] | Ki [2, 3] [nM] | Ki ([2]; Table I, enzyme 1 nM, pH 7.5, read-out: Ki(app) MMP-3(ΔC)) [nM] |
| --- | --- | --- | --- | --- | --- |
| (-2A)N-TIMP-3: N-TIMP-3 mutant with two alanine residues on the N-terminal side of Cysteine1 of the TIMP-3 sequence (protein) AACTCSPSHPQDAFCNSDIVIRAKVVGKKLVKEGPFGTLVYTIKQMKMYRGFTKMPHVQYIHTEASESLCGLKLEVNKYQYLLTGRVYDGKMYTGLCNFVERWDQLTLSQRKGLNYRYHLGCN | about 45 times | no inhibition | – | – | – |
| N-TIMP-3: N-terminal inhibitory domain of TIMP-3 (residues 1 to 121), C-terminally His-tagged, wild-type (protein) CTCSPSHPQDAFCNSDIVIRAKVVGKKLVKEGPFGTLVYTIKQMKMYRGFTKMPHVQYIHTEASESLCGLKLEVNKYQYLLTGRVYDGKMYTGLCNFVERWDQLTLSQRKGLNYRYHLGCN | – | – | 0.4 ± 0.2 | 1.8 ± 0.4 | – |
| -1A: N-TIMP-3 mutant with the addition of an N-terminal alanine extension (-1A) (protein) ACTCSPSHPQDAFCNSDIVIRAKVVGKKLVKEGPFGTLVYTIKQMKMYRGFTKMPHVQYIHTEASESLCGLKLEVNKYQYLLTGRVYDGKMYTGLCNFVERWDQLTLSQRKGLNYRYHLGCN | – | – | 1.9 ± 0.6 | > 1000 | ~3300 |
